Experimental data as given in article PMC4695161, “Multifaceted interactions and regulation between antizyme and its interacting proteins cyclin D1, ornithine decarboxylase and antizyme inhibitor” (Oncotarget, 2015).

B1: N-terminal CCND1 peptide CCND1(21-154) (domain or fragment, human, UniProt P24385 21-154, looked up)
chain: NLLNDRVLRAMLKAEETCAPSVSYFKCVQKEVLPSMRKIVATWMLEVCEEQKCEEEVFPLAMNYLDRFLSLEPVKKSRLQLLGATCMFVASKMKETIPLTAEKLCIYTDNSIRPEELLQMELLLVNKLKWNLAA
notes: source: truncated by deletion mutagenesis of the human CCND1 plasmid
B2: human ornithine decarboxylase (ODC) (enzyme, UniProt P11926 1-461, looked up)
chain: MNNFGNEEFDCHFLDEGFTAKDILDQKINEVSSSDDKDAFYVADLGDILKKHLRWLKALPRVTPFYAVKCNDSKAIVKTLAATGTGFDCASKTEIQLVQSLGVPPERIIYANPCKQVSQIKYAANNGVQMMTFDSEVELMKVARAHPKAKLVLRIATDDSKAVCRLSVKFGATLRTSRLLLERAKELNIDVVGVSFHVGSGCTDPETFVQAISDARCVFDMGAEVGFSMYLLDIGGGFPGSEDVKLKFEEITGVINPALDKYFPSDSGVRIIAEPGRYYVASAFTLAVNIIAKKIVLKEQTGSDDEDESSEQTFMYYVNDGVYGSFNCILYDHAHVKPLLQKRPKPDEKYYSSSIWGPTCDGLDRIVERCDLPEMHVGDWMLFENMGAYTVAAASTFNGFQRPTIYYVMSGPAWQLMQQFQNPDFPPEVEEQDASTLPVSCAWESGMKRHRAACASASINV
notes: ornithine decarboxylase (ODC), human; source: purified recombinant; expression not described
B3: human antizyme (AZ), wild type (natural protein)
chain: not shown
notes: antizyme (AZ), human; Natural AZ needs a +1 frameshift for translation; also called AZWT; full-length AZ; source: E. coli JM109 (pQE30), purified (Ni-NTA)
B4: N-terminal AZ peptide AZ(34-124) (domain or fragment)
chain: not shown
notes: also called AZ N-terminal peptide; source: truncated by deletion mutagenesis of the human AZ plasmid

Key:
Details in all cases: both partners purified
[1] = molecular target: B3; test: AUC; sedimentation velocity, size distribution of mixtures at molar ratio AZ/CCND1 of 1; 30 mM Tris-HCl pH 7.4, 50 mM NaCl, 20°C; no constant fitted
[2] = molecular target: T1, pre-formed AZ-CCND1 complex (human, UniProt P54368 1-228; P24385 1-295); test: AUC; sedimentation velocity; AZ pre-incubated 1 hour with ODC (or CCND1) at molar ratio 1, then the third protein (CCND1 or ODC) at varied concentration; 30 mM Tris-HCl pH 7.4, 50 mM NaCl, 20°C
T1 construct: antizyme (AZ), human, as m1; cyclin D1 (CCND1), human, as m2; Molar ratio AZ/CCND1 fixed at 1; also called CCND1-AZ complex; source: AZ pre-incubated with CCND1 for 1 hour (purified recombinant proteins)
T1 sequence (P54368 whole entry, chain 1 of 2): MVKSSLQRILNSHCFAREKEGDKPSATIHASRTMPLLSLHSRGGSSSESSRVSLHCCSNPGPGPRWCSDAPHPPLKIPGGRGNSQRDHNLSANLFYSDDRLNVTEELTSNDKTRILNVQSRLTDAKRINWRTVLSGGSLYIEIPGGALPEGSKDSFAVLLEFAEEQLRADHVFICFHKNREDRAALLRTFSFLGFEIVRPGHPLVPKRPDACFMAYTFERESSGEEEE
T1 sequence (P24385 whole entry, chain 2 of 2): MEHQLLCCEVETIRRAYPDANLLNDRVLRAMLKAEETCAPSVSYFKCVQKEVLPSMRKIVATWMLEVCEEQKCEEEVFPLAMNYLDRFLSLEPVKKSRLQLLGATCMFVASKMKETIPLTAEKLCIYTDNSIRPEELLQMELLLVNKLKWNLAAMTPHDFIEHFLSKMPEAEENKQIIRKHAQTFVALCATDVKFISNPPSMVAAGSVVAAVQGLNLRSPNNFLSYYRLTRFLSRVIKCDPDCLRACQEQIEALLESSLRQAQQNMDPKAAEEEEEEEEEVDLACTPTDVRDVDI

human cyclin D1 (CCND1) = molecular target: T2, human cyclin D1 (CCND1) (human, UniProt P24385 1-295); test: AUC; sedimentation velocity; AZ or AZ peptide at a fixed concentration, three concentrations of CCND1; 30 mM Tris-HCl pH 7.4, 50 mM NaCl; global fit (SEDPHAT) to A+B↔AB hetero-association
T2 construct: cyclin D1 (CCND1), human; source: E. coli JM109 (pQE30), purified (Ni-NTA)
T2 sequence (P24385 whole entry): as the sequence (P24385 whole entry, chain 2 of 2) above

| Binder | Kd (human cyclin D1 (CCND1)) | also measured |
| --- | --- | --- |
| B1 |  | binding result [1]: binds |
| B2 |  | Kd [2]: 1260 ± 20 nM |
| B3 | 810 ± 20 nM |  |
| B4 | 870 ± 10 nM |  |
